Here are results for one molecule from patent publication US20030109691A1 (GENERAL HOSPITAL, published 2003).

For this test, the target named is T1, CD54 (ICAM-1) (UniProt P05362 28-480, limits assumed).
T1 construct: Amine-coupled to a CM5 chip for SPR
Put plainly: ELISA, CD11a A domain on ICAM-1. In general terms: An ELISA detects its analyte on a solid surface through an enzyme-linked reagent.

T1 sequence (P05362 28-480 limits assumed): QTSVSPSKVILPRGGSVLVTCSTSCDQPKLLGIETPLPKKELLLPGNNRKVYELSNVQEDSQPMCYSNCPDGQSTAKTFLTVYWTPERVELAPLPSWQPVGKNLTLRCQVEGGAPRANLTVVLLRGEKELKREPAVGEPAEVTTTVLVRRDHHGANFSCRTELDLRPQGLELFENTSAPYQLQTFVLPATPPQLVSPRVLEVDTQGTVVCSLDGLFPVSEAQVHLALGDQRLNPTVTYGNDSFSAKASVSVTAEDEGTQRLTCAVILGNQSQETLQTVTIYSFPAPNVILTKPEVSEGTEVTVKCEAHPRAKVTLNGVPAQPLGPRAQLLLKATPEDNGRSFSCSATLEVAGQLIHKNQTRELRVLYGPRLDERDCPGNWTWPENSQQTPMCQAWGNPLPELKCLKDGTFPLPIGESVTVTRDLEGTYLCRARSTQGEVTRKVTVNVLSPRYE

B1: wild-type CD11a A domain (receptor, human, UniProt P20701 150-333, looked up)
chain: CIKGNVDLVFLFDGSMSLQPDEFQKILDFMKDVMKKLSNTSYQFAAVQFSTSYKTEFDFSDYVKRKDPDALLKHVKHMLLLTNTFGAINYVATEVFREELGARPDATKVLIIITDGEATDSGNIDAAKDIIRYIIGIGKHFQTKESQETLHKFASKPASEFVKILDTFEKLKDLFTELQKKIYV
notes: domain: A domain; also called wild-type protein without this substitution
Regarding B1, the binding result is reported as “no binding”.
